In PMC3161508 (Advances in experimental medicine and biology, 2010):

Molecular target: the molecule itself
Assay: non-reducing SDS-PAGE and Western blotting

B1: cone CNG channel β subunit CNGB3 (natural protein, mouse (endogenous in retina), UniProt Q9JJZ9 1-694, looked up)
chain: MLKSLTVKFNKVNPMEGRMEKKLCPNLSSLSQPTIAQGDNQSEKEPLRSRTPITFEKSHSKEDNSTGENSLRDFTPNPDPECRAELTRTMAEMEKTRTGKERPVSFKTKVLETSIINEYTDAHLHNLVERMRERTALYKKTLTEEENFPEVEASSQTAMSTNISPKQENNSKLKEHQDTFSFKPQRVPVKEHLRRMILPRSIDSYTDRVYLLWLLLVTIAYNWNCWLLPVRLVFPCQTPDNKNYWIITDIVCDIIYLCDILLIQPRLQFVRGGEIIVDSNELKRNYRSSTKFRMDVASLLPFEVLYIFFGVNPIFRANRILKYTSFFEFNHHLESIMDKAYVYRVIRTTGYLLFLLHINACVYYWASDYEGIGSTKWVYNGEGNKYLRCFYWAVRTLITIGGLPEPQTSFEIVFQFLNFFSGVFVFSSLIGQMRDVIGAATANQNYFQACMDHIIAYMNKYSIPQSVQYRVRTWLEYTWNSQRILDESNLLENLPTAMQLSIALDINFSIIDKVELFKGCDTQMIYDLLLRLKSTIYLPGDFVCKKGEIGKEMYIIKHGEVQVLGGPDGAQVLVTLKAGSVFGEISLLAKGGGNRRTADVVAHGFANLLTLDKKTLQEILLHYPTSKKLLMKKAKILLSQKGKTTQAIPARPGPAFLFPPKEETPRMLKVLLGNTGKVDLGRLLKGKRKTTTQK
In the case of B1, the “stoichiometry N” value is reported as 2.
